Our source for the Kd, koff and kon values is publication PMC6497169 (Nature microbiology, 2017).

First the molecules themselves.
B2: DotL(590–783)–DotN–IcmSW–LvgA with the (His)10-MBP tag on DotL(590–783) (complex)
chain 1: VEPPPDDYLMKLQKQLASFQSILESGDLSINKAVENEEITLISKALKESTIVEPIERGVAALIAFHGQNEPEPVEDIVEEEVEGALTIFSKLRIDPNAPPILVADKEVFSEPLLPINETRNQMITIERLAGAKDKYAGTVANELIKDFQIATSYPPEERDVIDVQELTGIIRDLSAKISAEREKANKKAAEELT
chain 2: MADNQQRCELKLIASPGSWRLYSARKIDERFKSYEQKIFQRDRYTCQFCGFQARLYQDIVNLDGDYTNNRLSNLVTACCFCAQCFFVESVGVGGYGGGTLIYLPELTQAELNSLCHVLFCAITNDTGYKSSAQNIYRSFKFRSQIVEEKFGEGTSDPAIFGQLMIDSGVNSEEIREKLFKNIRLLPSRAKFRKQIEKWAASALEEIAD
chain 3: MERDISKCMAKIAASMNAKFYLNDRFVSFDEVFSETGLLPAIAKRADQLCSLCLGYGLGATYDESEGALLGIRVVFDEVTPNVLRLLCMTDVMNELIQGGPSRDYTPLDELMYD
chain 4: MPDLSHEASAKYWFEYLDPMIYRVITFMESVENWTLDGNPELEEAMKQLGQELDDIEKIDLGLLAEEDKFIRIVGNIKSGRGLRLLQAIDTVHPGSASRVLIHAEETSLSSSDPAGFFLKRNIVFERLRLLSRVFCQYRLKLVLRALEGDE
chain 5: MADGDIEIKAGFVDTDLDDRKLTMIDDLNNPLAIVERVYLIWWHWADFHLHVISPHIDTITPAIVIEPELIPGSNDHEFVYSIHDSGSKLSTSKSQDMFSAGMSMCKLFYTIEKMVYILVERLKSGGVSMEAEVQIAFAGHEIAQRKAFESIINLPYNVVVTNFDPGIWGEKYLQNVKRLADKGYGYPPESPRKIYMHPVSSGTTARK

Experiment [1] addresses B2. Put plainly: BLI.
The target of a further experiment is VpdB (L. pneumophila, UniProt Q5ZW60 1-598). Briefly: BLI. For orientation: In BLI a coated tip is dipped into the sample, and binding shifts an interference pattern.

B1: SetA (natural protein)
chain: MYKIYSYLGWRIDMKTENLPQAGQEAQIDKKIHFIWVGHIMPQKNIQVVSEWAEKNPGYETIIWVDKKIAPAKELDLFILDMKSKGITVKDINEEGVCRDSIRHELDQESPNYGMVSDMLRLNILAAEGGIYLDSDILCSAPFPDEIYAPFGFLLSPWSQGANNTLCNDIILCSKGNQIIQQLADAIEQSYIARDSFEFTHEYASMKETKGERIAKTLGVTGPGFLFHQLKKMGILNDKSEMEAIHWELQDQRYLIDGSVKEPDYFYVPQNNTNDASWVPSIKRPGIENMSFQERLENAVQLIAFDIQKTGLFNLDHYANELKVKQNSWCIAAETSPELKPDSYLLIRPRDKTGEWTLYYVDEDKKLNPVTLPVIKGAIKLSEVSDPLRKFHTLLSQVSDPVNPTAHELKQIGRALIELKPRQDEWHCKNKWSGAEEIAQELWQRITSNETLRAQIKQCFTQFESLKPRVAELGLTRASGAGTEVEAHESTVKEQEIISQNTVGEEGTKEKNSVQLASENSSDEKIKTAHDLIDEIIQDVIQLDGKLGLLGGNTRQLEDGRVINIPNGAAMIFDDYKKYKQGELTAESALESMIKIAKLSNQLNRHTFFNQRQPETGQFYKKVAAIDLQTTIAAEYDNNHGLRI
In general, Kd refers to the constant that tells how readily two partners part at equilibrium. A higher Kd goes with lower affinity. What is called koff is a measure of how fast the partners let go of each other. Usually kon stands for the second-order rate constant of association. Read a low kon as slower complex formation. As to B1, in experiment [1], the Kd was found to be 1600 nM, the off-rate (koff) is 0.0203 s⁻¹ and the association rate constant (kon) worked out at 13100 M⁻¹ s⁻¹.
B2: in the experiment with VpdB, the Kd was about 332 nM, the koff was found to be 0.0039 s⁻¹ and the kon stood at 11800 M⁻¹ s⁻¹.
